Measurements reported in patent US20170102390A1.

Legend:
[1] = biological target: CK8/18 Ab (mouse antibody detected by the secondary anti-mouse antibody); assay: microscopy count on SKBR3 cells; 80 uL anti-mouse IgG-biotin, 7.5 uL Mag-Strept, 0 uL Mag-anti FITC
[2] = biological target: CK8/18 Ab (mouse antibody detected by the secondary anti-mouse antibody); assay: microscopy count on SKBR3 cells; 80 uL anti-mouse IgG-biotin, 7.5 uL Mag-Strept, 7.5 uL Mag-anti FITC

“Secondary antibody-biotin = goat anti-mouse IgG biotin (whole molecule)-Biotin” was tested. Which Carrier particles per cancer cell (carrier particles per cancer cell) [1] did it give?
Its Carrier particles per cancer cell (carrier particles per cancer cell) is 133.

What about the Carrier particles per cancer cell (carrier particles per cancer cell) [2] of the same substance?
Its Carrier particles per cancer cell (carrier particles per cancer cell) is 1110.
